Measurements as given in the RNAGym collection of RNA variant scans (doi:10.1093/nar/gkz1192).

B1: CPEB3 Ribozyme (parent)
chain: UAACAGGGGGCCACAGCAGAAGCGUUCACGUCGCAGCCCCUGUCAGAUUCUGGUGAAUCUGCGAAUUCUGCUGUAUAUCUC

Variants of: B1
Assay: self-cleavage, relative activity (ratio to wild type); higher = more cleavage; in vitro, sequencing
In short: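 Relative activity compares each variant's cleaved/total read fraction with that of the unmutated ribozyme. To get these fractions, barcoded CPEB3 ribozyme libraries from rounds of error-prone PCR were transcribed with T7 RNA polymerase for 5 hours at 37°C and then given 15 min of DNase I treatment before EDTA was added. The RNAs were reverse transcribed with template switching and sequenced on Illumina, and DNA sequencing linked barcodes to variants. A minimum of 5 reads applied, and three batches were averaged.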
UAACAGGGGGCCACAGCAGAAGCGUUCACGUCGCAGCCCCUGACAGAUUCUGGUGUAUCUGCGAAUUCUGCUGUAUAUCUC [U43A A56U] gave a self-cleavage of 0.88. Variant UAACAGGGGGCCACAGCAGAAGCGUUCACGUCGCAGCCCCUGACAGAUUCUGGUGGAUCUGCGAAUUCUGCUGUAUAUCUC [U43A A56G] has a self-cleavage of 0.97. For UAACAGGGGGCCACAGCAGAAGCGUUCACGUCGCAGCCCCUGACAGAUUCUGGUGCAUCUGCGAAUUCUGCUGUAUAUCUC [U43A A56C], the self-cleavage was 0.73. UAACAGGGGGCCACAGCAGAAGCGUUCACGUCGCAGCCCCUGACAGAUUCUGGUGAAUCUGCGUAUUCUGCUGUAUAUCUC [U43A A64U] gave a self-cleavage of 0.51. UAACAGGGGGCCACAGCAGAAGCGUUCACGUCGCAGCCCCUGACAGAUUCUGGUGAAUCUGCGGAUUCUGCUGUAUAUCUC [U43A A64G] showed a self-cleavage of 1.04. In the case of UAACAGGGGGCCACAGCAGAAGCGUUCACGUCGCAGCCCCUUUCAGAUUCUGGUGAAUCUGCGUAUUCUGCUGUAUAUCUC [G42U A64U], the self-cleavage is reported as 0.13. UAACAGGGGGCCACAGCAGAAGCGUUCACGUCGCAGCCCCUUUCAGAUUCUGGUGAAUCUGCGAAUUCUGCUGUAUAUCCC [G42U U80C] showed a self-cleavage of 0.51. Variant UAACAGGGGGCCACAGCAGAAGCGUUCACGUCGCAGCCCCUUUCAGAUUCUGAUGAAUCUGCGAAUUCUGCUGUAUAUCUC [G42U G53A] has a self-cleavage of 0.31. UAACAGGGGGCCACAGCAGAAGCGUUCACGUCGCAGCCCCUUUCAGAUUCUGGUGAAUCUGCGAAUUCUGCUGCAUAUCUC [G42U U74C] showed a self-cleavage of 0.35. For UAACAGGGGGCCACAGCAGAAGCGUUCACGUCGCAGCCCCUUUCAGAUUCUGGUGAAUCUGCGAAUUCUGCUGUGUAUCUC [G42U A75G], the self-cleavage was 0.19. For UAACAGGGGGCCACAGCAGAAGCGUUCACGUCGCAGCCCCUUUCAGAUUCUGGUGAAUCUGCGAAUCCUGCUGUAUAUCUC [G42U U67C], the self-cleavage was 0.08. In the case of UAACAGGGGGCCACAGCAGAAGCGUUCACGUCGCAGCCCCUGACUGAUUCUGGUGAAUCUGCGAAUUCUGCUGUAUAUCUC [U43A A45U], the self-cleavage is reported as 0.82. In the case of UAACAGGGGGCCACAGCAGAAGCGUUCACGUCGCAGCCCCUGACGGAUUCUGGUGAAUCUGCGAAUUCUGCUGUAUAUCUC [U43A A45G], the self-cleavage is reported as 0.75. Work on UAACAGGGGGCCACAGCAGAAGCGUUCACGUCGCAGCCCCUGACCGAUUCUGGUGAAUCUGCGAAUUCUGCUGUAUAUCUC [U43A A45C] yielded a self-cleavage of 0.39. Variant UAACAGGGGGCCACAGCAGAAGCGUUCACGUCGCAGCCCCUUUCAGAUUCUGGUGAAUCUGCGAAUUCUGCUGUACAUCUC [G42U U76C] has a self-cleavage of 0.93. UAACAGGGGGCCACAGCAGAAGCGUUCACGUCGCAGCCCCUGACAGAUUCUGGUGACUCUGCGAAUUCUGCUGUAUAUCUC [U43A A57C] showed a self-cleavage of 0.47. With UAACAGGGGGCCACAGCAGAAGCGUUCACGUCGCAGCCCCUGACAGAUUCUGGUGAGUCUGCGAAUUCUGCUGUAUAUCUC [U43A A57G] the self-cleavage was 1.05. Variant UAACAGGGGGCCACAGCAGAAGCGUUCACGUCGCAGCCCCUGACAGAUUCUGGUGAUUCUGCGAAUUCUGCUGUAUAUCUC [U43A A57U] has a self-cleavage of 1.11. For UAACAGGGGGCCACAGCAGAAGCGUUCACGUCGCAGCCCCUGACAGAUUCUGGUGAAUCUGCGAUUUCUGCUGUAUAUCUC [U43A A65U], the self-cleavage was 0.57. UAACAGGGGGCCACAGCAGAAGCGUUCACGUCGCAGCCCCUGACAGAUUCUGGUGAAUCUGCGAGUUCUGCUGUAUAUCUC [U43A A65G] showed a self-cleavage of 0.93. UAACAGGGGGCCACAGCAGAAGCGUUCACGUCGCAGCCCCUUUCAGAUUCUGGUGAAUCUGCGAAUUCGGCUGUAUAUCUC [G42U U69G] gave a self-cleavage of 0.14. With UAACAGGGGGCCACAGCAGAAGCGUUCACGUCGCAGCCCCUUUCAGAUCCUGGUGAAUCUGCGAAUUCUGCUGUAUAUCUC [G42U U49C] the self-cleavage was 0.02. For UAACAGGGGGCCACAGCAGAAGCGUUCACGUCGCAGCCCCUGACAGUUUCUGGUGAAUCUGCGAAUUCUGCUGUAUAUCUC [U43A A47U], the self-cleavage was 0.63. With UAACAGGGGGCCACAGCAGAAGCGUUCACGUCGCAGCCCCUGACAGGUUCUGGUGAAUCUGCGAAUUCUGCUGUAUAUCUC [U43A A47G] the self-cleavage was 1.06. With UAACAGGGGGCCACAGCAGAAGCGUUCACGUCGCAGCCCCUUUCAGAUUCUGGUGAAUCUGCGAAGUCUGCUGUAUAUCUC [G42U U66G] the self-cleavage was 0.32. In the case of UAACAGGGGGCCACAGCAGAAGCGUUCACGUCGCAGCCCCUUUCAGAUUCUGGUGAAUCUGCGAACUCUGCUGUAUAUCUC [G42U U66C], the self-cleavage is reported as 0.48. With UAACAGGGGGCCACAGCAGAAGCGUUCACGUCGCAGCCCCUUUCAGAUUCUGGUGAAUCUGCGAAAUCUGCUGUAUAUCUC [G42U U66A] the self-cleavage was 0.26. Work on UAACAGGGGGCCACAGCAGAAGCGUUCACGUCGCAGCCCCUUUCAGAUUCUGGUGAAUCAGCGAAUUCUGCUGUAUAUCUC [G42U U60A] yielded a self-cleavage of 0.21. Variant UAACAGGGGGCCACAGCAGAAGCGUUCACGUCGCAGCCCCUUUCAGAUUCUGGUGAAUCCGCGAAUUCUGCUGUAUAUCUC [G42U U60C] has a self-cleavage of 0.17. Variant UAACAGGGGGCCACAGCAGAAGCGUUCACGUCGCAGCCCCUUUCAGAUUCUGGUGAAACUGCGAAUUCUGCUGUAUAUCUC [G42U U58A] has a self-cleavage of 0.11. Work on UAACAGGGGGCCACAGCAGAAGCGUUCACGUCGCAGCCCCUUUCAGAUUCUGGUGAAUCUGCGAAUUCUGCUGUAUUUCUC [G42U A77U] yielded a self-cleavage of 0.37. For UAACAGGGGGCCACAGCAGAAGCGUUCACGUCGCAGCCCCUGACAGAUUCUGGUGAAUCUGCGAAUUCUGCUGUAUAUCUC [U43A], the self-cleavage was 1.17. UAACAGGGGGCCACAGCAGAAGCGUUCACGUCGCAGCCCCUUCCAGAUUCUGGUGAAUCUGCGAAUUCUGCUGUAUAUCUC [G42U U43C] gave a self-cleavage of 0.43. With UAACAGGGGGCCACAGCAGAAGCGUUCACGUCGCAGCCCCUUACAGAUUCUGGUGAAUCUGCGAAUUCUGCUGUAUAUCUC [G42U U43A] the self-cleavage was 0.54.
